Data set [1] addresses TmelEST2 (Tuber melanosporum). In words: SEC; Superdex 200 HR10/30, 200 µg purified protein per run, 25 mM Tris-HCl pH 7.5, 150 mM NaCl, non-denaturing; size unchanged on β-mercaptoethanol supplementation. A general note: In gel filtration, larger molecules generally elute earlier.
The target in data set [2] is TmelEST1 (Tuber melanosporum). Described as above.
For data set [3], the target named is TmelEST3 (Tuber melanosporum). The data set is described as above.
Data set [4] has as its system T1, TmelEST3.
T1 construct: signal peptide (first 18 residues) removed; N-terminal 6xHis cut with thrombin; E. coli BL21-CodonPlus(DE3)-RIL; ~35 kDa subunit, dimer (~65 kDa); salt-bridge residues Glu291, Arg304
The experiment in a line: pH-shift assay with phenol red, A560. It counts as biochemical, Tuber melanosporum. The following applies: 2 mM Tris-HCl pH 8, 25 °C; 1-30 mM substrate; preliminary data; read-out: estimated Km.

In data set [5] the test system is T2, TmelEST1.
T2 construct: signal peptide (first 18 residues) removed; N-terminal 6xHis cut with thrombin; E. coli BL21-CodonPlus(DE3)-RIL; ~35 kDa subunit, dimer (~65 kDa); salt-bridge residues Glu284, Arg297; Arg242
In words: pH-shift assay with phenol red, A560. It counts as biochemical, Tuber melanosporum. The conditions noted are these: 2 mM Tris-HCl pH 8, 25 °C; 0.25-5 mM substrate; read-out: apparent Km.

The test system of data set [6] is T1, TmelEST3. The experiment in a line: pNP release at […] nm, Michaelis-Menten fit. Type of data set: biochemical, Tuber melanosporum. The conditions noted are these: 25 mM Na-phosphate pH 7.0, 25 °C; Triton X-100 stabilized enzyme.
Data set [7] concerns T2, TmelEST1. In words: pNP release at […] nm, Michaelis-Menten fit. Type of data set: biochemical, Tuber melanosporum. The conditions noted are these: 25 mM Na-phosphate pH 7.0, 25 °C; Triton X-100 stabilized enzyme.
Substrate in data set [8]: CCCCC(=O)Oc1ccc([N+](=O)[O-])cc1
The experiment in a line: purified protein. It counts as biochemical, Tuber melanosporum. The following applies: 25 mM Na-phosphate pH 7.0, 25 °C, Triton X-100 stabilized enzyme.

Substrate in data set [9]: CCCC(=O)Oc1ccc([N+](=O)[O-])cc1
In words: purified protein. It counts as biochemical, Tuber melanosporum. The conditions noted are these: 25 mM Na-phosphate pH 7.0, 25 °C, Triton X-100 stabilized enzyme.

Substrate in data set [10]: COC(=O)c1ccccc1O
In words: pH-shift assay with phenol red, A560. It counts as biochemical, Tuber melanosporum. The conditions noted are these: 2 mM Tris-HCl pH 8, 25 °C, 1-30 mM substrate, preliminary data.

We go through 8 molecules from PMC5550427, “A family of archaea-like carboxylesterases preferentially expressed in the symbiotic phase of the mycorrhizal fungus Tuber melanosporum” (Scientific Reports, 2017).

Broadly, the stoichiometry N is a count of units in the complex or per binding partner. Take TmelEST2 (enzyme): the stoichiometry N in data set [1] was found to be 2.
TmelEST1 (enzyme) yielded a stoichiometry N in data set [2] of 2.
Turning to TmelEST3 (enzyme), in [3], the stoichiometry N amounted to 2.
What is called Km is the concentration of substrate that gives half-maximal velocity. On to `COC(=O)Cc1c[nH]c2ccccc12` [indole-3-acetic methyl ester], for which the Km in the data set on TmelEST3 [4] is approximately 3350 µM.
Consider `CCOC(=O)/C=C/c1ccc(O)c(OC)c1` [ethyl ferulate], for which, in the data set with TmelEST1 [5], the Km came to 880 µM.
With `CCCC(=O)Oc1ccc([N+](=O)[O-])cc1` [C4, p-nitrophenyl-butyrate], the Michaelis constant (Km) was 109 ± 6 µM in the data set on TmelEST3 [6] and 140 ± 14 µM in the data set with TmelEST1 [7].
Turning to `CCCCC(=O)Oc1ccc([N+](=O)[O-])cc1` [C5, pNP-valerate], the Michaelis-Menten constant (Km) with TmelEST3 [6] came to 137 ± 20 µM; with TmelEST1 [7], 160 ± 20 µM.

B1: TmelEST2 (Tuber melanosporum Mel28) (protein)
chain: ETPAPSCPVTNVTTPQLDPITQAYADAISSRPSLFAFPLPEIRDGYQSNVSDPSTEFTTKILSLPVGPTGNVTAYLYKPVSGEREKGKDLLPVIAYFHGGGWVFGGPKSYRGLITNLIRESGAAVFFVDYTLTPKVAYPVPNEQCYAAVQWLLEHGEKLGVDPTNMGFGGDSAGGELSSSVSLLSIKRKTPLPKFQVLIYPATDLACESATFKEFPNGPGLTTDEIRFAASLFTPDPKSRLEDVASPGRASDEDLAKFPETLIVVAEVDPIRQQGEDFGRRLQKLGVRAAIIRVLGTIHGFASIDVLSEAPGAKATIELIGYKFKKALH
notes: signal peptide (first 18 residues) removed; N-terminal 6xHis cut with thrombin; E. coli BL21-CodonPlus(DE3)-RIL; ~35 kDa subunit, dimer (~65 kDa); structure residues 34-347; triad Ser190, Asp287, His317
As a reminder, the Vmax is the top rate of the reaction or transport when substrate is in excess. As usually defined, the kcat is the maximal rate divided by the concentration of active sites. A word on the kcat/Km: it is the second-order rate constant that governs catalysis at low substrate concentration. In the case of B1, in the data set “purified protein [8]”, the Km was 44 ± 7 µM, the Vmax is 4790 µmol/min/mg, the kcat worked out at 2870 s⁻¹ and the catalytic efficiency (kcat/Km) was determined as 6.53e+07 M⁻¹ s⁻¹. In “purified protein [9]”, the Km is 49 ± 8 µM, the maximal velocity (Vmax) amounted to 3840 µmol/min/mg, the kcat came out at 2300 s⁻¹ and the kcat/Km stood at 4.7e+07 M⁻¹ s⁻¹. For the same molecule, in data set [10], the Km was found to be 750 µM and the turnover number (kcat) was 1 s⁻¹.
